Results on seven molecules are retold here after patent US20210388081A1 (Memorial Sloan Kettering, published 2021).

The target in assay [1] is T1, FcRL1, overexpressed on 3T3 cells (UniProt Q96LA6 17-429, limits assumed).
T1 construct: whole, on cells
T1 sequence (looked up): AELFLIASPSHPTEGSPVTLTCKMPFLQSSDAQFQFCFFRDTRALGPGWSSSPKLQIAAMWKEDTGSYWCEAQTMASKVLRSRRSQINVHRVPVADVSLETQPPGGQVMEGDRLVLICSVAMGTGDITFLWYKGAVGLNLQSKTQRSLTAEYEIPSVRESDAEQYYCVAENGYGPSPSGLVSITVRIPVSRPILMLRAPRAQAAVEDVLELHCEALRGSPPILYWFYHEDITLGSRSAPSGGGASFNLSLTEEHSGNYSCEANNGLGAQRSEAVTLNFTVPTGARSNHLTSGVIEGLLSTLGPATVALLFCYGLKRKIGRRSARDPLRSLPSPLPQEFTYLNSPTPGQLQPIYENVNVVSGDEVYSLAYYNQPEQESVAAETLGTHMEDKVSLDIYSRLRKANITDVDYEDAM
Briefly: phage clone on 3T3-FcRL1 cells.

Assay [2] deals with T2, Fc Receptor-like 5 (FcRL5), full length, overexpressed on 3T3 or Raji cells (human, UniProt Q96RD9 16-977).
T2 construct: also called 3T3-FcRL5
T2 sequence: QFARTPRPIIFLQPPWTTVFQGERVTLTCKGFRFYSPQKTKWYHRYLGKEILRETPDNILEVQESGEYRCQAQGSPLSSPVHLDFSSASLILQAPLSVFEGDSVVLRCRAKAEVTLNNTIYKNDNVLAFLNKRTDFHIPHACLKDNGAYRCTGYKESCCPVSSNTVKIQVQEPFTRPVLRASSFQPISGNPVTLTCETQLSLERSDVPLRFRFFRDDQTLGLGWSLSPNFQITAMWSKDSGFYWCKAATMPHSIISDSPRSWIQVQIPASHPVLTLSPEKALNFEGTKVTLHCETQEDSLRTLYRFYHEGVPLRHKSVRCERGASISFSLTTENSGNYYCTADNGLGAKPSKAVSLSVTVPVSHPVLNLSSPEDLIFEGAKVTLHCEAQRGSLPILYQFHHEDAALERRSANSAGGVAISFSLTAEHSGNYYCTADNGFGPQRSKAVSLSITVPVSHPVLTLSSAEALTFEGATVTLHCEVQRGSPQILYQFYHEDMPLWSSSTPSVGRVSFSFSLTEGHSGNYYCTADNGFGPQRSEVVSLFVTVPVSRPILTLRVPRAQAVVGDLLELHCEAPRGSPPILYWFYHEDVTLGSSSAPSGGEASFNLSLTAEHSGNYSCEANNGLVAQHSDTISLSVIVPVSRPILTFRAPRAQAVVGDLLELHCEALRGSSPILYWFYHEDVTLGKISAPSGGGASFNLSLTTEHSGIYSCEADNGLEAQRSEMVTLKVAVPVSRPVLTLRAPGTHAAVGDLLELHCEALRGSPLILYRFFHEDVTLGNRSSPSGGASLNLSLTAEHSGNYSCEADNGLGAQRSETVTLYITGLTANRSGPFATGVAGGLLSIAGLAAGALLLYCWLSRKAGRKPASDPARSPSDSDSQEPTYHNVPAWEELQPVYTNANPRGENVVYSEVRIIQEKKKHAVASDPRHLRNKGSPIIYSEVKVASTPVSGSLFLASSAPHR
As to the kind of experiment: phage clone screening on cells. A digest of the protocol:
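Cell-surface binding was read by flow cytometry using anti-M13 coat protein mAb and PE-labelled anti-mouse Ig. Selected scFv phage were screened on FcRL5-overexpressing 3T3 cells, with 3T3 lines bearing FcRL1, 2, 3, 4 or 6 as negative controls.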

B1: ET200-009 (scFv)
scFv: QSVLTQPPSASGTPGQTVTISCSGSNSNIGSNYVYWYQQLPGTAPKLLIYRNNQRPSGVPDRFSGSKSGTSASLAISGLRSEDEADYYCAAWDDSLSAYVFGTGTKVTVLGSRGGGGSGGGGSGGGGSLEMAQVQLVQSGAEVKKPGASVKVSCKASGYTFTSYGISWVRQAPGQGLEWMGWISAYNGNTNYAQKLQGRVTMTTDTSTSTAYMELRSLRSDDTAVYYCARSSGNMVSWKDMWGQGTLVTVSSTSGQAGQHHHHHHGAYPYDVPDYAS
notes: screened as phage clone; entry is VL-linker-VH-His tag-HA tag
For B1, the binding result in assay [1] is given as “no binding”; in assay [2], “binds”.

B2: ET200-123 (scFv)
scFv: QAVLTQPPSASGTPGQRVTISCSGSSSNIGSNTVNWYQQLPGTAPKLLMYNNDQRPSGVPDRFSGSKSGTSASLAISGLQSEDEADYYCAAWDDSLNGYVFGPGTKVTVLGSRGGGGSGGGGSGGGGSLEMAQVQLVESGAEVKKPGASVKVSCKASGYTFTSYGISWVRQAPGQGLEWMGWISAYNGNTNYAQKLQGRVTMTTDTSTSTAYMELRSLRSDDTAVYYCARDLSRGANPHYYYYYGMDVWGQGTTVTVSSTSGQAGQHHHHHHGAYPYDVPDYAS
notes: as for B1
As for B2, the binding result is “no binding” in assay [1] and “binds” in assay [2].

B3: ET200-125 (scFv)
scFv: NFMLTQPHAVSESPGKTVTISCTRSSGSIASNYVQWYQQRPGSSPRTVIYEDNQRPSGVPGRFSGSIDSSSNSASLTISGLKTEDEADYYCQSYDSTSVLFGGGTKLTVLGSRGGGGSGGGGSGGGGSLEMAEVQLVQSGAEVKKPGSSVKVSCKASGGTFSSNSLSWVRQAPGQGLEWMGRIFPILGITNYAQKFQGRVTITADKSTSTAYMELSSLRSEDTAVYYCARGNYQWYDAFDIWGQGTMVTVSSTSGQAGQHHHHHHGAYPYDVPDYAS
notes: as for B1
As to B3, the binding result in assay [1] is given as “no binding”; in assay [2], “binds”.

B4: ET200-121 (scFv)
scFv: QSVLTQPPSVSGAPGQRVTVSCTGSRSNIGAGYDVHWYQQLPGTAPKLLIYGNSNRPPGVPDRFSGSKSGTSASLVITGLQAEDAADYYCQSYDNTVRESPYVFGTGTKVTVLGSRGGGGSGGGGSGGGGSLEMAEVQLVQSGAEVKKPGASVKVSCKVSGYTLTELSMHWVRQAPGKGLEWMGGFDPEDGETIYAQKFQGRVTMTEDTSTDTAYMELSSLRSEDTAVYYCATESNLVSRHYYYYGMDVWGQGTTVTVSSTSGQAGQHHHHHHGAYPYDVPDYAS
notes: as for B1
With B4, the figures for the binding result in assay [1] and in assay [2] were “no binding” and “binds”, respectively.

B5: ET200-005 (scFv)
scFv: QPVLTQPPSVSVVPGKTARITCGGKNIGSKSVHWYQQKPGQAPVVVIHYDSDRPSGIPERFSGSNSGNTATLTISRVEAGDEADYYCQVWDSSSDHPYVFGTGTKVTVLGSRGGGGSGGGGSGGGGSLEMAQVQLVQSGAEVKKPGASVKVSCKASGYTFTNYGISWVRQAPGQGLEWMGWISAYNGNTNYAHKLQGRVTMTTDTSTSTANMELRSLRPDDTAVYYCARSYFGSHDYWGQGTLVTVSSTSGQAGQHHHHHHGAYPYDVPDYAS
notes: as for B1
B5: the binding result in assay [1] is given as “no binding”; in assay [2], “binds”.

B6: ET200-010 (scFv)
scFv: QSALTQPASVSGSPGQSITISCTGTSSDVGGYNSVSWYQQHPGKAPRLMIYDVSNRPSGVSNRFSGSKSGNTASLTISGLQAEDEADYYCSSYTSSSTPLVFGTGTKVTVLGSRGGGGSGGGGSGGGGSLEMAQVQLVQSGAEVKKPGASVKVSCKASGYTFTSYGISWVRQAPGQGLEWMGWISAYNGNTNYAQKLQGRVTMTTDTSTSTAYMELRSLRSDDTAVYYCARGAVAYHDWGQGTLVTVSSTSGQAGQHHHHHHGAYPYDVPDYAS
notes: as for B1
For the molecule B6, the figures for the binding result in assay [1] and in assay [2] were “no binding” and “binds”, respectively.

B7: ET200-124 (scFv)
scFv: SYVLTQPPSVSVAPGKTARISCGGNDIGSKSVFWYQQRPGQAPVLVVYDDSDRPSGLPERFSGFNSGNTATLTISRVEAGDEADYYCQVWDSSSDHYVFGTGTKVTVLGSRGGGGSGGGGSGGGGSLEMAQVQLVESGGGLVQPGRSLRLSCAASGFTFDDYAMHWVRQAPGKGLEWVSGISWNSGSIGYADSVKGRFTISRDNAKNSLYLQMNSLRAEDTALYYCAKDITYGSGSYGAFDIWGQGTMVTVSSTSGQAGQHHHHHHGAYPYDVPDYAS
notes: as for B1
Turning to B7, the binding result is “no binding” in assay [1] and “binds” in assay [2].
